Results taken from patent US20220002418A1 (HUABO BIOPHARM SHANGHAI, published 2022).

T1: Soybean trypsin inhibitor 1-S type (Sigma, T-2327) (soybean, UniProt P01070 25-205)
T1 construct: Non-target molecule, amine-coupled to the CM5 chip
T1 sequence (looked up): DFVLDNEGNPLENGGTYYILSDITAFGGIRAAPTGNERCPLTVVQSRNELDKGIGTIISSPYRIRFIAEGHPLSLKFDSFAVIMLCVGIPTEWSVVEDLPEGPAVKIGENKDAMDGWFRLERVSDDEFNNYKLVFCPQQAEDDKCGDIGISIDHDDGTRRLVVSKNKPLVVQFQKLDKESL


How the values were obtained:
[1] = biological target: T2, Recombinant human VEGF165 (Sino Biological, 11066-HNAH) (human, UniProt P15692-4 27-191); experiment: SPR (Biacore 8K), antibody captured on anti-human capture CM5 chip, antigen as analyte, 1:1 model
T2 construct: Bought reagent
Protocol: (§1) Methods: Anti-Human Capture-CM5 chip was prepared according to the amino coupling method of the Human Antibody Capture Kit. The chip was balanced at room temperature for 20-30 min, and then loaded into Biacore 8K instrument. The transient transduced protein was diluted to experimental working concentration with equilibration buffer. The antigen was diluted to 50 nM with equilibration buffer, and then diluted to seven concentration gradients with a 3-fold dilution, and two zero concentrations (equilibration buffer) and one repeat concentration (usually a repeat of the lowest concentration) were set. According to the order of antibody, antigen, and regeneration, cyclical experimental analysis were performed on 10 antigen concentrations (2 zero concentrations, 7 gradient concentrations and 1 repeat concentration), wherein the antigen injection flow rate was 30 μL/min, binding time was 120 seconds, and dissociation time was 600 seconds. After the analysis was completed, the corresponding analysis program was selected to analyze the data, confirming that there was no obvious reference binding. Kinetics, 1:1 binding modle was selected to fit the data, and the kinetic related parameters Ka, Kd and KD values of human-mouse chimeric antibody and humanized antibody were obtained.

[2] = biological target: T3, Recombinant human PD-L1 (Sino Biological, 10084-H08H) (human, UniProt Q9NZQ7 19-239); experiment: as above
T3 construct: Bought reagent
Protocol: as §1

[3] = biological target: T2, Recombinant human VEGF165 (Sino …); experiment: SPR (Biacore 8K), same method as Example 2
Protocol: as §1

[4] = biological target: T3, Recombinant human PD-L1 (Sino …); experiment: SPR (Biacore 8K), same method as Example 2
Protocol: as §1

[5] = biological target: T1, Soybean trypsin inhibitor 1-S type …; experiment: SPR (Biacore 8K), same method as Example 3, soybean trypsin inhibitor on CM5 chip
Protocol: (§2) Methods: Series S Sensor Chip CM5 was balanced at room temperature for 20-30 min, and loaded into Biacore 8K instrument. Egg white lysozyme and soybean trypsin inhibitor 1-S type were fixed to the CM5 chip, respectively, using the Amino Coupling Kit. The injection buffer was HBS-EP+1×. 4 balance cycles were setted. The rabbit polyclonal antibody against lysozyme, the antibody against trypsin inhibitor, and the humanized monoclonal antibody were diluted to 1000 nM with equilibration buffer, and the flow rate was set as 5 μL/min, and the injection channels were 1, 2 and 3. The Flow Cells were 1 and 2. The binding time was 10 min, and the dissociation time was 15 min. The regeneration flow rate was 50 μl/min, which is regenerated first with 0.85% phosphoric acid for 60 s, and then with 50 mM sodium hydroxide for 30 s. The results of non-specific adsorption of bispecific antibody HB0025 and non-target molecules are shown in Table 3, and the sensor diagram of the detection of non-specific adsorption of bispecific antibody and non-target molecules is shown in FIG. 3.

[6] = biological target: T4, Egg white lysozyme (Sigma, L3790) (UniProt P00698 19-147); experiment: SPR (Biacore 8K), same method as Example 3, lysozyme on CM5 chip
T4 construct: Non-target molecule, amine-coupled to the CM5 chip
Protocol: as §2

T3 sequence (Q9NZQ7 19-239 limits assumed): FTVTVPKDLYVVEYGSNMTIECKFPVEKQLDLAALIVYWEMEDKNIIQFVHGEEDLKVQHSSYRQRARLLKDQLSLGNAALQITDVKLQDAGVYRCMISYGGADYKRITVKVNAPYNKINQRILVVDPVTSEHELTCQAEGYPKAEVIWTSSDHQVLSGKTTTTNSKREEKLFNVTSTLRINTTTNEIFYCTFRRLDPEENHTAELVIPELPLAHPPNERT
T2 sequence (P15692 other isoform, or with tags, fused parts or gaps): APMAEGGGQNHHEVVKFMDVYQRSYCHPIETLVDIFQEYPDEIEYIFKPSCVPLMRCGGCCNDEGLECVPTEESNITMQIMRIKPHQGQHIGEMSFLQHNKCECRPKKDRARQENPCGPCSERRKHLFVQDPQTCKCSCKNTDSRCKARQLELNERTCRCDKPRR
T4 sequence (P00698 19-147 limits assumed): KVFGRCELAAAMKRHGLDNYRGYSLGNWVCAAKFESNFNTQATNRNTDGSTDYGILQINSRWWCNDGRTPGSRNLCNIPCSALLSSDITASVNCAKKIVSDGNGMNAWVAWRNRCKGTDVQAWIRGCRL

Kd [1] [nM] | koff [1] [s⁻¹] | kon [1] [M⁻¹ s⁻¹] | Kd [2] [nM] | koff [2] [s⁻¹] | kon [2] [M⁻¹ s⁻¹] | Kd [3] [nM] | koff [3] [s⁻¹] | kon [3] [M⁻¹ s⁻¹] | Kd [4] [nM] | koff [4] [s⁻¹] | kon [4] [M⁻¹ s⁻¹] | binding result [5] | binding result [6] | Binder
0.0295 | 0.00028 | 9.5e+06 | 0.844 | 0.000402 | 476000 | – | – | – | – | – | – | – | – | bispecific antibody HB0025 (bifunctional antibody 900387) (bispecific antibody, human IgG1, kappa, L234A L235A, symmetrical molecule with two H and two L chains; also called HB0025-22A3/9E3-ProA-EP; HB0025-22F5/4E6-ProA-EP) heavy: not shown light: DVVMTQTPLSLSVTPGQPASISCKSSQSLANSYGNTYLSWYLHKPGQSPQLLIYGISNRFSGVPDRFSGSGSGTDFTLKISRVEAEDVGVYYCLQGTHQPPTFGQGTKLEIKRTVAAPSVFIFPPSDEQLKSGTASVVCLLNNFYPREAKVQWKVDNALQSGNSQESVTEQDSKDSTYSLSSTLTLSKADYEKHKVYACEVTHQGLSSPVTKSFNRGEC
– | – | – | – | – | – | 0.0398 | 0.00041 | 1.03e+07 | 0.824 | 0.000522 | 633000 | no binding | no binding | bispecific antibody 900388 (bispecific antibody, human IgG1, kappa, L234A L235A) heavy: not shown light: DVVMTQTPLSLSVTPGQPASISCKSSQSLANSYGNTYLSWYLHKPGQSPQLLIYGISNRFSGVPDRFSGSGSGTDFTLKISRVEAEDVGVYYCLQGTHQPPTFGQGTKLEIKRTVAAPSVFIFPPSDEQLKSGTASVVCLLNNFYPREAKVQWKVDNALQSGNSQESVTEQDSKDSTYSLSSTLTLSKADYEKHKVYACEVTHQGLSSPVTKSFNRGEC
